Measured values from US20170174769A1 (Regeneron, published 2017).
Values joined by “and” are separate entries in the source; they are usually repeats but may differ in a detail not shown here. Equal entries are not always repeated.

Assays:
[1] = target: M. fascicularis KLB and human FGFR1c co-expressed on HEK293/MfKLB/hFGFR1c/SRE-Luc cells (M. fascicularis; human, UniProt A0A2K5WB58 1-1044); assay: cell-based or functional assay
[2] = target: T1, extracellular domain of human FGFR1c expressed with C-terminal V5 and hexahistidine tags (human, UniProt P11362 22-376); assay: SPR, mAb captured, 25 C
T1 construct: also called hFGFR1c-V5-6His
T1 sequence: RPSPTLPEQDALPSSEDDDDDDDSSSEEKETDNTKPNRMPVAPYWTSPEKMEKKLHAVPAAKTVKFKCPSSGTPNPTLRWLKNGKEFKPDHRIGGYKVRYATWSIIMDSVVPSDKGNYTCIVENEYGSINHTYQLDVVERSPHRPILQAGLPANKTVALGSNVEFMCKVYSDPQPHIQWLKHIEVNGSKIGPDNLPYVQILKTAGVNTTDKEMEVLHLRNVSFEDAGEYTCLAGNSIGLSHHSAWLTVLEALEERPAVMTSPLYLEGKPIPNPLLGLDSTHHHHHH
Description: (§1) Equilibrium dissociation constants (KD values) for human KLB or human FGFR1c binding to purified anti-KLB/FGFR1c monoclonal antibodies were determined using a real-time surface plasmon resonance biosensor using a Biacore T-200 or 4000 instrument. The Biacore sensor surface was derivatized by amine coupling with either a polyclonal rabbit anti-mouse antibody (GE, # BR-1008-38) or with a monoclonal mouse anti-human Fc antibody (GE, # BR-1008-39) to capture anti-KLB/FGFR1c monoclonal antibodies expressed with either a mouse Fc or a human Fc, respectively. All Biacore binding studies were performed in a buffer composed of 0.01M HEPES pH 7.4, 0.15M NaCl, 3mM EDTA, 0.05% v/v Surfactant P20 (HBST running buffer). […] Association of hKLB-HA-6His or hFGFR1c-V5-6His to the captured monoclonal antibody was monitored for 3.5 to 4 minutes and the dissociation of hKLB-HA-6His or hFGFR1c-V5-6His in HBST running buffer was monitored for 8-12 minutes. All the binding kinetics experiments were performed at 25° C. or 37° C. Kinetic association (kₐ) and dissociation (kd) rate constants were determined by fitting the real-time sensorgrams to a 1:1 binding model using Scrubber 2.0c curve fitting software. Binding dissociation equilibrium constants (KD) and dissociative half-lives (t½) were calculated from the kinetic rate constants as: […]

[3] = target: T1, extracellular domain of human FGFR1c …; assay: SPR, mAb captured, 37 C
Description: as §1

[4] = target: T2, full-length human FGFR1c on HEK293/hFGFR1c/SRE-luc cells (human, UniProt P11362 22-822); assay: FACS on stable HEK293 cells
T2 construct: amino acids 1-733 of NP_075593
Description: To determine binding specificity of the monoclonal anti-KLB/FGFR1c antibodies, the antibodies were tested in a fluorescence-activated cell sorting (FACS) binding assay to cell lines expressing human FGFR1c, human KLB, and both human FGFR1c and human KLB. HEK293 cell lines were generated that stably express full-length human FGFR1c (hFGFR1c; SEQ ID NO:433) or full-length human KLB (hKLB; SEQ ID NO:434) or both human FGFR1c and human KLB, along with a luciferase reporter [SRE (serum response element)-luciferase, SA Bioscience, #CLS-010L]. The resulting cell lines, referred to as HEK293/hFGFR1c/SRE-luc, HEK293/hKLB/SRE-luc, and HEK293/hKLB/hFGFR1c/SRE-luc, respectively, were maintained in DMEM supplemented with 10% FBS, NEAA, penicillin/streptomycin, 1 μg/mL puromycin and […] hygromycin B, 1 μg/mL puromycin and 500 μg/mL G418, or all three antibiotics.
For the FACS analysis, HEK293 parental, HEK293/hFGFR1c/SRE-luc, HEK293/hKLB/SRE-luc, and HEK293/hKLB/hFGFR1c/SRE-luc cells were dissociated and plated onto 96-well v-bottom plates at 5 x 10⁵ cells/well in PBS containing 1% FBS. […] Cells were filtered and subsequently analyzed on a Hypercyte Flow Cytometer (Intellicyt Corp.). Unstained and secondary antibody alone controls were also tested for binding to all cell lines. The results were analyzed using FlowJo version 9.52 software and geometric mean (Geom. Mean) of fluorescence for viable cells was determined. Geom. mean of fluorescence for each antibody was then normalized to Geom. mean of unstained cells to obtain relative binding of antibody (binding ratios) per each cell type.

[5] = target: human KLB and human FGFR1c co-expressed on HEK293/hKLB/hFGFR1c/SRE-luc cells (human, UniProt Q86Z14 1-1044; P11362 22-822); assay: cell-based or functional assay
[6] = target: cell-surface human FGFR1c (amino acids 1-731 of NP_075594) with cell-surface human KLB on … (human, UniProt P11362 22-822); assay: cell-based or functional assay
[7] = target: T3, extracellular domain of human KLB expressed with C-terminal HA and hexahistidine tags (human, UniProt Q86Z14 1-996); assay: SPR, mAb captured, 25 C
T3 construct: also called hKLB-HA-6His; hKLB-HA-6his
T3 sequence: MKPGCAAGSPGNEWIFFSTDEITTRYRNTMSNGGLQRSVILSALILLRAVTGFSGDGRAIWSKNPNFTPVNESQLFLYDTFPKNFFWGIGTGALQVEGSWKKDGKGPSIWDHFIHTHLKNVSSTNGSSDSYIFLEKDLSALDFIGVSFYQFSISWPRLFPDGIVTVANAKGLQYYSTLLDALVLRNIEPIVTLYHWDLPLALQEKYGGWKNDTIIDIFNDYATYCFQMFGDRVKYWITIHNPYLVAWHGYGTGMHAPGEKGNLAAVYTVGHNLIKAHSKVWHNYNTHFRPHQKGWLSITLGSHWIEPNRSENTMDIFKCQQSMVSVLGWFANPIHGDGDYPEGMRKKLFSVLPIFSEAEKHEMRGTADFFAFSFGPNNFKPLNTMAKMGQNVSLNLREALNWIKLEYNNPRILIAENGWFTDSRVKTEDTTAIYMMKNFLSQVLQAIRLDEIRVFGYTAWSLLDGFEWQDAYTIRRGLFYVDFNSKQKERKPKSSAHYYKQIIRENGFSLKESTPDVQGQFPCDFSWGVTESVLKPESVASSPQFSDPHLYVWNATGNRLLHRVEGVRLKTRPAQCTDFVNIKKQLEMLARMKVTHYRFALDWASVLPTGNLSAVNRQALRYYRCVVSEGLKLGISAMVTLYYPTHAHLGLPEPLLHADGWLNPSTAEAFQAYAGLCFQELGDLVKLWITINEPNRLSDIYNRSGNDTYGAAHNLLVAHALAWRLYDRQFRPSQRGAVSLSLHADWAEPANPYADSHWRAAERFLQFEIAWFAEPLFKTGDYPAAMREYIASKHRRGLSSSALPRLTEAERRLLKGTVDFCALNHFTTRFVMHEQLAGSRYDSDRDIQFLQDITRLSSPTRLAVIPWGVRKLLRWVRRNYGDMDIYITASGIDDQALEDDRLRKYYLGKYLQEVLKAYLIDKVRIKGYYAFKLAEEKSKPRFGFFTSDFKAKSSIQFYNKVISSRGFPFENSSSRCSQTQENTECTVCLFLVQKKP
Description: as §1

[8] = target: T3, extracellular domain of human KLB …; assay: SPR, mAb captured, 37 C
Description: as §1

[9] = target: mouse KLB and mouse FGFR1c co-expressed on HEK293/mKLB/mFGFR1c/SRE-Luc cells (mouse); assay: cell-based or functional assay

Sequence of cell-surface human FGFR1c (amino acids 1-731 of NP_075594) with cell-surface human KLB on … (P11362 22-822): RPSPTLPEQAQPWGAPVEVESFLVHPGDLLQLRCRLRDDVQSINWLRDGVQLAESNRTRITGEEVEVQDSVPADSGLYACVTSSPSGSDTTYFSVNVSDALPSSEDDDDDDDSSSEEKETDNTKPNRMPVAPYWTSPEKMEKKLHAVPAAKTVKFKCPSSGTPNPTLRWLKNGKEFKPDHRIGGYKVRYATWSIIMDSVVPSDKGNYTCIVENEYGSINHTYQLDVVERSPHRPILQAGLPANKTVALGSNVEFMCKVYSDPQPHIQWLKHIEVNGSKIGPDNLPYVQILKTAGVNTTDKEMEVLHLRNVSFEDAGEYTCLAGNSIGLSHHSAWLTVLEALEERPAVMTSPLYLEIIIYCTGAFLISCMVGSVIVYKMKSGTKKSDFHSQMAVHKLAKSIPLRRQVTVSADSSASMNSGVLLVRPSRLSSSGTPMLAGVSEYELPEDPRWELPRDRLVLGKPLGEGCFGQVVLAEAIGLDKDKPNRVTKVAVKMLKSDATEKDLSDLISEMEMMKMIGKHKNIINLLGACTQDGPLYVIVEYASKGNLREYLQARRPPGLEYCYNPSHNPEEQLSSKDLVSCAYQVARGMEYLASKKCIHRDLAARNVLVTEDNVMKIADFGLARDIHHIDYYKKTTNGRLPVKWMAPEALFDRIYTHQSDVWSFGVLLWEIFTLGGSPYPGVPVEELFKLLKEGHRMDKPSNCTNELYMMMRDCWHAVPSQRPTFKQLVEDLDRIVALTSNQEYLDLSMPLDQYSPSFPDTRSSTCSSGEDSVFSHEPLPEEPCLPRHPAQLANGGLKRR
Sequence of M. fascicularis KLB and human FGFR1c co-expressed on HEK293/MfKLB/hFGFR1c/SRE-Luc cells (chain, as listed by the source, chain 1 of 2): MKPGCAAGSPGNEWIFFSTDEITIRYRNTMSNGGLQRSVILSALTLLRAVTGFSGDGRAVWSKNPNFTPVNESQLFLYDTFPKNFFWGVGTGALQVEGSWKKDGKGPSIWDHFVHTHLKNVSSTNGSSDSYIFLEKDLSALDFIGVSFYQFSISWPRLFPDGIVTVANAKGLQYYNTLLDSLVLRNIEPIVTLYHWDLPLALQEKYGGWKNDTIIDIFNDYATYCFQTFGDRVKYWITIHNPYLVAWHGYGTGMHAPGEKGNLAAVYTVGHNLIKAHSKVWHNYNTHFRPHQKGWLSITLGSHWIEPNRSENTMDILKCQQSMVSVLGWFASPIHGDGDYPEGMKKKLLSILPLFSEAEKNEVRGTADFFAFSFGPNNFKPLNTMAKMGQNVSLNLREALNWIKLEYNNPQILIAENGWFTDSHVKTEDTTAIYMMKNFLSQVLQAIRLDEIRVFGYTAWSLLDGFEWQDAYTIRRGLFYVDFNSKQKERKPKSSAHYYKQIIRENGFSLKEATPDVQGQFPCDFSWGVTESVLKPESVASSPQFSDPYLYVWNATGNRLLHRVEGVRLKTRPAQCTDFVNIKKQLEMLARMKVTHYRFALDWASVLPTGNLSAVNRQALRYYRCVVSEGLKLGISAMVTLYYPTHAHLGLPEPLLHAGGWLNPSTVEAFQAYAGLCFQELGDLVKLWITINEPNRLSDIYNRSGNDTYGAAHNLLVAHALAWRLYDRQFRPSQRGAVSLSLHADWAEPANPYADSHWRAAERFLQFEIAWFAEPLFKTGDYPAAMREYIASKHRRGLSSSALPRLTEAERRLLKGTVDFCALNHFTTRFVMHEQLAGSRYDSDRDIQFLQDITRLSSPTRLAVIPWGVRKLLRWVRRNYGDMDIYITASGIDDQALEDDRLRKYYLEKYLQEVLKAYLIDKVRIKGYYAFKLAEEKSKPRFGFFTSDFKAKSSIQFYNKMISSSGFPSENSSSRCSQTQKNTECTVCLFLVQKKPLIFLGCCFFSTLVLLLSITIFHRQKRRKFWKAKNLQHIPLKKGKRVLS
Sequence of M. fascicularis KLB and human FGFR1c co-expressed on HEK293/MfKLB/hFGFR1c/SRE-Luc cells (chain, as listed by the source, chain 2 of 2): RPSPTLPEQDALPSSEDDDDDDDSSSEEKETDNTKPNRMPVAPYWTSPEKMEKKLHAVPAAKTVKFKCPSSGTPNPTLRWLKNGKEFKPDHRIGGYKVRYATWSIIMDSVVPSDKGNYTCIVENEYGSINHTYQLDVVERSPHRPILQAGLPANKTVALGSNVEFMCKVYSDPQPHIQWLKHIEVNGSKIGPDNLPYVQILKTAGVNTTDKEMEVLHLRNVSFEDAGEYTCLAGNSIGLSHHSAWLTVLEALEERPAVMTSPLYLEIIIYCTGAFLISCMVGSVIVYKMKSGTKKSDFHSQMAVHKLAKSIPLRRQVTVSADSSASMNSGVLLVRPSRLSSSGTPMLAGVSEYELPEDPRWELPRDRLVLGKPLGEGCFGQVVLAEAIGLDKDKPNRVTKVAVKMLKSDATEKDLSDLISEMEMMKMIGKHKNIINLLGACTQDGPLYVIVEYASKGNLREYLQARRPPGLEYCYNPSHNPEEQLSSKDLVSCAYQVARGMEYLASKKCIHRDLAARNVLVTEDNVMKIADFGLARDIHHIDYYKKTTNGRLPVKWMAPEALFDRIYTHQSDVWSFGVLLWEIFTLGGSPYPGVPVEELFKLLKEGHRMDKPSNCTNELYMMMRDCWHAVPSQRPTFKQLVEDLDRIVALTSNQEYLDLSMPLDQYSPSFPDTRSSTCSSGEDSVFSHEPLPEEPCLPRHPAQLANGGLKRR
T2 sequence (P11362 other isoform, or with tags, fused parts or gaps limits assumed): as the sequence (chain, as listed by the source, chain 2 of 2) above

B1: H2bM8833N (antibody, V domains shown)
VH: QVQLVESGGGVVQPGRSLRLSCAASGFTFSRYGIHWVRQAPGKGLEWVAVIWYDGSNKYYADSLKGRFTISRDNSKNTLYLQMNSLRAEDTAVYYCARDQGNYIDYWGQGTLVTVSS
VL: AIQMTQSPSSLSASVGDRVTITCRTSQGIRNDLGWYQQKPGKVPKLLIYAASSLQSGVPSRFSGSGSGTDFTLTISSLQPEDFATYYCLQDYNYPFTFGPGTKVDIK
notes: mouse IgG2 Fc (H2bM prefix)
- IC50, inhibition of 10 nM mfFGF21 [1]: 0.099 nM
- Maximum Inhibition (%) of 10 nM mfFGF21 [1]: 16%
- 180 nM hFGFR1c-V5-6His Bind (RU) [2]: 1.9 RU
- 180 nM hFGFR1c-V5-6His Bind (RU) [3]: 1.4 RU
- binding ratio to unstained cells [4]: 9 fold

B2: H2bM8096N (antibody, V domains shown)
VH: QVQLVESGGGVVQPGRSLRLSCAASGFTFSSYGLHWVRQAPGKGLEWVAVIWHDGSHKYYADSVKGRFTISRDNSKNTVYLQMNSLRAEDTAVYYCARDGIPVAEDYYLYGMDVWGQGTTVTVSS
VL: EIVLTQSPGTLSLSPGERATLSCRASQSVDSSYLAWYHQKPGQAPRLLIYGASSRATGIPDRFSGSGSGTDFTLTISRLEPEDFAVYYCQQYGSSRTFGQGTKVEIK
notes: mouse IgG2 Fc (H2bM prefix)
- 180 nM hFGFR1c-V5-6His Bind (RU) [2]: -0.7 RU
- 180 nM hFGFR1c-V5-6His Bind (RU) [3]: -1.2 RU

B3: scFv8092N-IgG4mutFc x scFv8900P-IgG4mutFc* Heterodimer (bispecific antibody)
chain 1: not shown
chain 2: QVQLVESGGGVVQPGRSLRLSCVASGFTFSSYGMHWVRQAPGKGLEWVAVISFDGSNKYYADSVKGRFTISRDNSKNTLYLQMNSLRPADTAVYYCAKDRSNYYYFGMDVWGQGTTVTVSSGGGGSGGGGSGGGGSDIVMTQTPLSLPVTPGEPASISCRSSQSLLDSDDGNTYLDWYLQKPGQSPQLLIYTLSYRASGVPDRFSGSGSGTDFTLKISRVEAEDVGVYYCMQRIEFPLTFGGGTKVEIKGGGGSGGGGSGGGGSESKYGPPCPPCPAPEFLGGPSVFLFPPKPKDTLMISRTPEVTCVVVDVSQEDPEVQFNWYVDGVEVHNAKTKPREEQFNSTYRVVSVLTVLHQDWLNGKEYKCKVSNKGLPSSIEKTISKAKGQPREPQVYTLPPSQEEMTKNQVSLTCLVKGFYPSDIAVEWESNGQPENNYKTTPPVLDSDGSFFLYSRLTVDKSRWQEGNVFSCSVMHEALHNRFTQKSLSLSPGK
notes: also called 8900P ScFv-Fc*/8092N ScFv-Fc; H4H8900P ScFv-Fc*/H4H8092N ScFv-Fc
- EC50, SRE-luc activation without ligand [5]: 0.28 nM
- IC50, inhibition of 1 nM 6His-hFGF21 [5]: 0.39 nM
- Maximum Activation (%) [5]: 0.5%
- Maximum Inhibition (%) [5]: 90%
- % Activation [6]: 1.6%
- EC50, SRE-luc activation [6]: > 5 nM
- 20 nM hKLB-HA-6His Bind (RU) [7]: 27.3 RU
- Kd [7]: 0.318 nM
- koff [7]: 3.94e-05 s⁻¹
- kon [7]: 124000 M⁻¹ s⁻¹
- t1/2 [7]: 4.89 h
- 180 nM hFGFR1c-V5-6His Bind (RU) [2]: 0.9 RU
- binding result [2]: no binding (tested: 180 nM)
- 20 nM hKLB-HA-6His Bind (RU) [8]: 86.7 RU
- Kd [8]: 1.3 nM
- koff [8]: 0.000178 s⁻¹
- kon [8]: 137000 M⁻¹ s⁻¹
- t1/2 [8]: 1.08 h
- 180 nM hFGFR1c-V5-6His Bind (RU) [3]: 0.4 RU

B4: mouse FGF21 (ligand, UniProt Q9JJN1 29-210, looked up)
chain: AYPIPDSSPLLQFGGQVRQRYLYTDDDQDTEAHLEIREDGTVVGAAHRSPESLLELKALKPGVIQILGVKASRFLCQQPDGALYGSPHFDPEACSFRELLLEDGYNVYQSEAHGLPLRLPQKDSPNQDATSWGPVRFLPMPGLLHEPQDQAGFLPPEPPDVGSSDPLSMVEPLQGRSPSYAS
- EC50, SRE-luc activation by ligand [9]: 0.33 nM and 0.37 nM
